# Data reported in article PMC8310366.
# Assays:
# [1] = target: DENV NS1 S233A mutant (dengue virus serotype 2 (DENV-2, strain 16681)); assay: SDS-PAGE under non-heated, non-reduced conditions with immunoblotting
# [2] = target: DENV NS1 T230A mutant (dengue virus serotype 2 (DENV-2, strain 16681)); assay: as above
# [3] = target: DENV NS1 V6A mutant (dengue virus serotype 2 (DENV-2, strain 16681)); assay: as above
# [4] = target: Dengue virus serotype 2 nonstructural protein 1 (DENV NS1), wild type (dengue virus serotype 2 (DENV-2, strain 16681)); assay: as above
# [5] = target: Dengue virus serotype 2 nonstructural protein 1 (DENV NS1), wild type (dengue virus serotype 2 (DENV-2, strain 16681)); assay: SDS-PAGE under non-heated, non-reduced conditions with Coomassie staining
# [6] = target: DENV NS1 T29A mutant (dengue virus serotype 2 (DENV-2, strain 16681)); assay: SDS-PAGE under non-heated, non-reduced conditions with immunoblotting
substance,measurement,setting,value
DENV NS1 S233A mutant (natural protein),stoichiometry N,[1],2
DENV NS1 T230A mutant (natural protein),stoichiometry N,[2],2
DENV NS1 V6A mutant (natural protein),stoichiometry N,[3],2
"Dengue virus serotype 2 nonstructural protein 1 (DENV NS1), wild type (natural protein)",stoichiometry N,[4],2
same,stoichiometry N,[5],2
DENV NS1 T29A mutant (natural protein),stoichiometry N,[6],2
